Among the data in PMC8922439 are stoichiometry N values, retold here.

Experiment [1] concerns the target mRNA-expressed CH848 10.17DT DS SOSIP trimer (HIV-1 (CH848 10.17)). The experiment in a line: SEC.
Experiment [2] addresses mRNA-expressed CH848 10.17DT SOSIPv4.1 trimer (HIV-1 (CH848 10.17)). The experiment in a line: SEC.

Broadly, the stoichiometry N is a count of units in the complex or per binding partner.

Take “mRNA-expressed CH848 10.17DT DS SOSIP trimer (domain or fragment)”: the stoichiometry N in experiment [1] was 3.
As to “mRNA-expressed CH848 10.17DT SOSIPv4.1 trimer (domain or fragment)”, the stoichiometry N in experiment [2] came to 3.
